B1: TPR 5TU (parent)
chain: GGAUCUUCUCGAUCUAACAAAAAAGACAAAUCUGCCACAAAGCUUGAGAGCAUCUUCGGAUGCAGAGGCGGCAGCCUUCGGUGGCGCGAUAGCGCCAACGUUCUCAACUAUGACACGCAAAACGCGUGCUCCGUUGAAUGGAGUUUAUCAUG

Variants at the floor of the assay were thinned out. Bounds are passed on as bounds.

In the data set the parent is B1. Description: polymerase ribozyme fitness, log enrichment relative to wild type (log ratio); higher = more active; in vitro selection for triplet polymerase activity. A digest of the protocol: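 Genotype fitness is the logarithm of its enrichment divided by wild-type enrichment, using inverse-variance-weighted averages of replicates. That logarithm is base 2. Enrichment was measured by Illumina sequencing of input and output libraries from one triplicate in vitro selection round, with frozen incubation at −7 °C, on PCR-built, transcribed mutant libraries of each subunit of a heterodimeric triplet polymerase ribozyme, retaining genotypes with ≥10 input reads and ≥1 read per output.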
For A49U A52G U61G C93U, the “polymerase ribozyme fitness (log ratio)” value was -3.49. Turning to G50A C93A, the “polymerase ribozyme fitness (log ratio)” value is -3.33. Consider G50C A52G G62A G74U G86C C116U, for which the “polymerase ribozyme fitness (log ratio)” value is no more than -4.2.

On to G50U A52C C57A G58U A107G, for which the “polymerase ribozyme fitness (log ratio)” value was no more than -4.2. On to A49U G59C A73G A119C U134G G136A, for which the “polymerase ribozyme fitness (log ratio)” value was -3.39. Consider G50A U78A G84A G100C A137G, for which the “polymerase ribozyme fitness (log ratio)” value was no more than -4.2. Regarding G50C G126A, the “polymerase ribozyme fitness (log ratio)” value is -2.28. Consider G50A U145A, for which the “polymerase ribozyme fitness (log ratio)” value is -0.516. Consider G50C C57U U82G A121G G143C, for which the “polymerase ribozyme fitness (log ratio)” value is no more than -4.2.

As to G50C C75G, the “polymerase ribozyme fitness (log ratio)” value was no more than -4.2. In the case of A49G A120U, the “polymerase ribozyme fitness (log ratio)” value is -0.63. For G50C G59C U102G the value was -2.34; for A49U A91G U130A A138U, no more than -4.2; for A49U A52C G59A A73U C76G G84U, no more than -4.2. In the case of G50C G59C, the “polymerase ribozyme fitness (log ratio)” value was -3.38.

In the case of G50U A91G C103G, the “polymerase ribozyme fitness (log ratio)” value was no more than -4.2. As to G50A C118G, the “polymerase ribozyme fitness (log ratio)” value was -2.21.

On to G50A C85U, for which the “polymerase ribozyme fitness (log ratio)” value is -1.67. As to A49G G50C, the “polymerase ribozyme fitness (log ratio)” value was -2.28.

Take A49G G50C U77A G92A C103G G117U: the “polymerase ribozyme fitness (log ratio)” value is no more than -4.2. With A49U U56A C75U C108A U111G U146G, the “polymerase ribozyme fitness (log ratio)” value was no more than -4.2. As for G50A G92C, the “polymerase ribozyme fitness (log ratio)” value is -3.26. As to A49U G50C C57U A89C C96A, the “polymerase ribozyme fitness (log ratio)” value is -3.23. Consider G50C C57A A64U U78G, for which the “polymerase ribozyme fitness (log ratio)” value is no more than -4.2. For G50C G86C the value was no more than -4.2; for G50C G86U, -3.89.

For G50A A73U C93G G100U A107G U109C A142C A150U, the “polymerase ribozyme fitness (log ratio)” value is no more than -4.2. In the case of A49G C63U C85U, the “polymerase ribozyme fitness (log ratio)” value is -0.955. With A49U U56G C57U C96U U102G A147G, the “polymerase ribozyme fitness (log ratio)” value was -3.99. The result for A49G U53A C54U reads -2.09; that for A49U C75U G80A C96U A97C U145A U146G U148G, no more than -4.2; that for G50A G65C C76G G92C G100A C125G, no more than -4.2.

As for G50A C75G U90G U111C C123G U139A U144C, the “polymerase ribozyme fitness (log ratio)” value is no more than -4.2.

Regarding A49U G74A C79A U90A G94A C123G G133U, the “polymerase ribozyme fitness (log ratio)” value is no more than -4.2. A49G G50C C69G C103G G136U: the “polymerase ribozyme fitness (log ratio)” value was no more than -4.2. Take G50C G74A G92U: the “polymerase ribozyme fitness (log ratio)” value is no more than -4.2. G50C G74A U77G C93G U135A U139A: the “polymerase ribozyme fitness (log ratio)” value is no more than -4.2.

For G50C A52G U53A G81C U82G G88U C105G A150G, the “polymerase ribozyme fitness (log ratio)” value was no more than -4.2. Consider G50C A60C A98U, for which the “polymerase ribozyme fitness (log ratio)” value is -3.01.

Regarding G50C G86A U102A G143U, the “polymerase ribozyme fitness (log ratio)” value was no more than -4.2. Regarding A49G U61A G71A U90C G94A A119G, the “polymerase ribozyme fitness (log ratio)” value is no more than -4.2. On to A49U G50A A60C, for which the “polymerase ribozyme fitness (log ratio)” value is -2.62. The result for A49G C87A G126A reads no more than -4.2. Consider G50C A98U, for which the “polymerase ribozyme fitness (log ratio)” value was -2.38.

Turning to A49U C93A C103U A119U, the “polymerase ribozyme fitness (log ratio)” value is no more than -4.2. Consider A49U A52U A89G A98G, for which the “polymerase ribozyme fitness (log ratio)” value is -3.98.

For A49U U56G C57U C96U U102G, the “polymerase ribozyme fitness (log ratio)” value is -1.32.

As for G50A U53A, the “polymerase ribozyme fitness (log ratio)” value was -1.59. As to A49G U104C C149G, the “polymerase ribozyme fitness (log ratio)” value was no more than -4.2. Consider A49U A52C A89G C95U, for which the “polymerase ribozyme fitness (log ratio)” value was -2.69.

For A49U A73G, the “polymerase ribozyme fitness (log ratio)” value was -2.09. Regarding G50A G74A U78C A113G G124C, the “polymerase ribozyme fitness (log ratio)” value is no more than -4.2.

Take G50C C116A U144A C149G: the “polymerase ribozyme fitness (log ratio)” value is no more than -4.2.

Turning to A49U C75U U102G, the “polymerase ribozyme fitness (log ratio)” value is -2.65. Consider G50C U56G A64G G83A C105G U109G, for which the “polymerase ribozyme fitness (log ratio)” value was no more than -4.2. With G50A A142U, the “polymerase ribozyme fitness (log ratio)” value was -2.45. As for G50A G94U A121C, the “polymerase ribozyme fitness (log ratio)” value was -2.21.

For the variant G50A A52C U55G G141C, the “polymerase ribozyme fitness (log ratio)” value is no more than -4.2. With G50A C87U C99U U146A, the “polymerase ribozyme fitness (log ratio)” value is -3.96. Regarding G50A G83C U144A, the “polymerase ribozyme fitness (log ratio)” value is -2.07. In the case of G50A U134C, the “polymerase ribozyme fitness (log ratio)” value is -1.29. With G50A G71A C95U U139A, the “polymerase ribozyme fitness (log ratio)” value was no more than -4.2. For A49G G59C U77G U139A the value was no more than -4.2. Take G50C A52C C118G: the “polymerase ribozyme fitness (log ratio)” value was -3.55. Consider A49G G83C, for which the “polymerase ribozyme fitness (log ratio)” value is -1.21. In the case of G50A C95G A115U, the “polymerase ribozyme fitness (log ratio)” value was no more than -4.2. Take G50C A52C C79A C116G C125G C132G: the “polymerase ribozyme fitness (log ratio)” value was no more than -4.2. As to A49G C51G U78C C96G G136A, the “polymerase ribozyme fitness (log ratio)” value was no more than -4.2. Regarding G50A G65A U102C, the “polymerase ribozyme fitness (log ratio)” value is -4.1. Regarding A49U U61G C93A C108G C114A U134A C149G, the “polymerase ribozyme fitness (log ratio)” value was no more than -4.2. In the case of A49U U82G C105U C116U U145A, the “polymerase ribozyme fitness (log ratio)” value is -2.58. On to A49U C51U C79A A120G C123A, for which the “polymerase ribozyme fitness (log ratio)” value is no more than -4.2. On to G50A A66G C85A A106G G140C, for which the “polymerase ribozyme fitness (log ratio)” value was no more than -4.2.

In the case of A49U G59U, the “polymerase ribozyme fitness (log ratio)” value is -0.317. For the variant G50A C116U A121U C132U U144G, the “polymerase ribozyme fitness (log ratio)” value was -1.82.

For the variant G50A C99G, the “polymerase ribozyme fitness (log ratio)” value is -3.05. For G50A G88A the value was no more than -4.2; for A49U A52G, -1.71; for G50C G65C G68A G86U A147G, no more than -4.2.

With A49U C75A A91G, the “polymerase ribozyme fitness (log ratio)” value was -4.15. In the case of G50C G65C C87U, the “polymerase ribozyme fitness (log ratio)” value is -4.13. Turning to G50A U56A C57A C114G G133A, the “polymerase ribozyme fitness (log ratio)” value is -3.53. As to G50C A73C C95G C105G, the “polymerase ribozyme fitness (log ratio)” value is no more than -4.2.

These data come from the RNAGym collection of RNA variant scans (doi:10.1073/pnas.2313332121).
